The values below are quoted from earlier work in PMC8314067.

In data set [1] the target is type II receptor complex (IL-4Rα/IL-13Rα1) (Homo sapiens) (UniProt P24394).
The target in data set [2] is type I receptor complex (IL-4Rα/γc) (Homo sapiens) (UniProt P24394).
Data set [3] deals with type II receptor complex (IL-4Rα/IL-13Rα1) (Homo sapiens) (UniProt P24394). The source holds these as a separate data set.

Read-outs that look alike come from different tables or passages of the source.

For IL-4 (from UniProt P05112), the Kd was 487 nM in data set [1] and 559 nM in data set [2].
Turning to IL-13 (from UniProt P35225), the Kd in data set [3] was 20 nM.

By Kd is commonly meant the constant that tells how readily two partners part at equilibrium.
